In data set [1] the test system is Lactococcus lactis alcohol dehydrogenase Ll_AdhA, SEQ ID NO: 67. The note with it: NADH as cofactor; cited from earlier work.
Substrate in data set [2]: NC(=O)C1=CN([C@@H]2O[C@H](COP(=O)(O)OP(=O)(O)OC[C@H]3O[C@@H](n4cnc5c(N)ncnc54)[C@H](O)[C@@H]3O)[C@@H](O)[C@H]2O)C=CC1
Description: KARI cuvette assay, purified Ec_IlvC^B8-his6. The class given is biochemical, E. coli. On the procedure:
(§1) KARI cuvette assay: KARI activity was assayed kinetically by monitoring the decrease in NAD(P)H concentration by measuring the absorbance at 340 nm. A reaction buffer was prepared containing 250 mM potassium phosphate pH 7, 1 mM DTT and 10 mM MgCl2. Cell pellets were resuspended (0.25 g wet weight/mL buffer) in 250 mM potassium phosphate (KPi) buffer containing 1 mM DTT and 10 mM MgCl2. The resuspended cells were lysed by sonication for 1 min with a 50% duty cycle and pelleted at 11000×g and 4° C. for 15 min. A reaction mixture consisting of 910 μl reaction buffer, 50 μl acetolactate, and 20 μl lysate was prepared in a cuvette. The reaction was initiated by addition of 20 μL of 10 mM NAD(P)H. A substrate free control was conducted using reaction buffer without the addition of acetolactate.
(§2) Purification of KARI: Cell pellets used for purification were resuspended in purification buffer A (20 mM Tris, 20 mM imidazol, 100 mM NaCl, 10 mM MgCl2, pH 7.4). KARI was purified by IMAC (Immobilized metal affinity chromatography) over a 1 ml Histrap High Performance (histrap HP) column pre-charged with Nickel (GE Healthcare) using an Akta FPLC system (GE Healthcare). The column was equilibrated with four column volumes (cv) of buffer A. After injecting the crude extract, the column was washed with buffer A for 2 cv, followed by a wash step with a mixture of 10% elution buffer B (20 mM Tris, 300 mM imidazol, 100 mM NaCl, 10 mM MgCl2, pH 7.4) for 5 cv. KARI variants were eluted at 40% buffer B and stored at 4° C.
(§3) As a next step, the gene encoding variant Ec_llvC^Q110V-his6 (SEQ ID NO: 23) was used as template to generate individual combinations of the mutation Q110V with other mutations: R68L, A71T, A71S, R76G, R76S, R76T, S78D, and R76D. After screening the variants as described above, the most promising ones were expressed, purified, and characterized. Table 29 lists the KM values in μM on NADPH and NADH for Ec_llvC^his6, Ec_llvC^Q110V-his6, and variants of Ec_llvC^Q110V-his6. […] The A71S mutation was introduced into Ec_llvC^B8-his6 resulting in a variant Ec_llvC^B8A71S-his6, which yielded 44% catalytic efficiency on NADH compared to the catalytic efficiency of wild-type KARI on NADPH (FIG. 19 and Table 30).

Substrate in data set [3]: NC(=O)C1=CN([C@@H]2O[C@H](COP(=O)(O)OP(=O)(O)OC[C@H]3O[C@@H](n4cnc5c(N)ncnc54)[C@H](OP(=O)(O)O)[C@@H]3O)[C@@H](O)[C@H]2O)C=CC1
Description: KARI cuvette assay, purified Ec_IlvC^B8-his6. The class given is biochemical, E. coli. Particulars: other: purified; acetolactate as substrate. How it is done:
as §1, §2, §3

Substrate in data set [4]: NC(=O)C1=CN([C@@H]2O[C@H](COP(=O)(O)OP(=O)(O)OC[C@H]3O[C@@H](n4cnc5c(N)ncnc54)[C@H](O)[C@@H]3O)[C@@H](O)[C@H]2O)C=CC1
Briefly: KARI cuvette assay, purified Ec_IlvC^B8A71S-his6. Type of data set: biochemical, E. coli. How it is done:
as §1, §2, §3

Substrate in data set [5]: NC(=O)C1=CN([C@@H]2O[C@H](COP(=O)(O)OP(=O)(O)OC[C@H]3O[C@@H](n4cnc5c(N)ncnc54)[C@H](OP(=O)(O)O)[C@@H]3O)[C@@H](O)[C@H]2O)C=CC1
Briefly: KARI cuvette assay, purified Ec_IlvC^B8A71S-his6. Type of data set: biochemical, E. coli. Particulars: other: purified; acetolactate as substrate. How it is done:
as §1, §2, §3

Substrate in data set [6]: NC(=O)C1=CN([C@@H]2O[C@H](COP(=O)(O)OP(=O)(O)OC[C@H]3O[C@@H](n4cnc5c(N)ncnc54)[C@H](O)[C@@H]3O)[C@@H](O)[C@H]2O)C=CC1
Description: KARI assay, purified Ec_IlvC^6E6-his6. Type of data set: biochemical, E. coli. The note with it: 30.0 °C. How it is done:
as §1, §2
(§4) Only 20% of the enzymes of the recombination library were active on NADH. After screening 1,000 clones using the NADH depletion assay at 340 nm, 26 KARI variants were selected for a rescreen by the high-throughput assay described in Example 14 and eight thereof were expressed in 25 ml LBamp medium in shake flasks according to the protocol for cell growth and protein expression in shake flasks as described in Example 14, purified according to the protocol for purification of KARI enzymes as described in Example 14, and NAD(P)H depletion at 340 nm was measured again. […] The KM values of variants Ec_llvC^2H10-his6 and Ec_llvC^6E6-his6 were measured and the catalytic efficiencies were calculated.
(§5) Improved variants were expressed and purified from GEVO1186. 20 mL SC-URA medium overnight cultures were grown at 30° C. and 250 rpm in 250 mL flasks and were then used to inoculate 96 well deep well plates on the next morning. 50 μL of the overnight cultures were transferred into 600 μL SC-URA medium per well. The plates were then grown at 30° C. and 250 rpm in a humidified plate shaker for 8 h. In order to the harvest, the cultures were transferred into 50 mL Falcon tubes and then spun down at 4° C. and 5,000 rpm for 10 min. The pellets were frozen until they were processed and purified as described in Example 14 above.

Substrate in data set [7]: NC(=O)C1=CN([C@@H]2O[C@H](COP(=O)(O)OP(=O)(O)OC[C@H]3O[C@@H](n4cnc5c(N)ncnc54)[C@H](OP(=O)(O)O)[C@@H]3O)[C@@H](O)[C@H]2O)C=CC1
Description: KARI assay, purified Ec_IlvC^6E6-his6. The class given is biochemical, E. coli. The note with it: other: Example 15, expressed in E. coli BL21(DE3), purified; 30.0 °C. On the procedure: as §1, §2, §4, §5

Substrate in data set [8]: NC(=O)C1=CN([C@@H]2O[C@H](COP(=O)(O)OP(=O)(O)OC[C@H]3O[C@@H](n4cnc5c(N)ncnc54)[C@H](O)[C@@H]3O)[C@@H](O)[C@H]2O)C=CC1
Briefly: KARI assay, purified Ec_IlvC^2H10-his6. The class given is biochemical, E. coli. The note with it: other: purified; acetolactate as substrate. How it is done:
as §1, §2, §4

Substrate in data set [9]: NC(=O)C1=CN([C@@H]2O[C@H](COP(=O)(O)OP(=O)(O)OC[C@H]3O[C@@H](n4cnc5c(N)ncnc54)[C@H](OP(=O)(O)O)[C@@H]3O)[C@@H](O)[C@H]2O)C=CC1
Description: KARI assay, purified Ec_IlvC^2H10-his6. The class given is biochemical, E. coli. Particulars: other: purified; acetolactate as substrate. On the procedure:
as §1, §2, §4

Substrate in data set [10]: NC(=O)C1=CN([C@@H]2O[C@H](COP(=O)(O)OP(=O)(O)OC[C@H]3O[C@@H](n4cnc5c(N)ncnc54)[C@H](O)[C@@H]3O)[C@@H](O)[C@H]2O)C=CC1
Description: KARI cuvette assay, purified Ec_IlvC^his6 (parent / wild type). Type of data set: biochemical, E. coli. On the procedure: as §1, §2
(§6) The three best variants Ec_llvC^S78D-his6, Ec_llvC^Q110A-his6, and Ec_llvC^Q110V-his6 were characterized according to their specific activities [U/mg], kcat values [s^−1], catalytic efficiencies [M^−1*s^−1] (FIG. 18), and KM values (Table 27).
as §4

Substrate in data set [11]: NC(=O)C1=CN([C@@H]2O[C@H](COP(=O)(O)OP(=O)(O)OC[C@H]3O[C@@H](n4cnc5c(N)ncnc54)[C@H](OP(=O)(O)O)[C@@H]3O)[C@@H](O)[C@H]2O)C=CC1
The data set is described as above. The class given is biochemical, E. coli. Particulars: other: purified; acetolactate as substrate. On the procedure: as §1, §2, §6, §4

The mark [12] stands for this setting: other: purified, acetolactate as substrate.
[13] abbreviates: other: Example 15, expressed in E. coli BL21(DE3), purified.
The mark [14] stands for this setting: other: Example 16, expressed in yeast GEVO1186, purified.

Changes are numbered by the printed parent chain. Numbers in names are those of the source.

In the case of `CC=O` [Acetaldehyde], in data set [1], the Km was 500 µM and the kcat is 10 s⁻¹.

For `CC(C)C=O` [isobutyraldehyde], in data set [1], the Km was 9100 µM and the kcat is 6.6 s⁻¹.

B1: E. coli KARI Ec_IlvC variant Ec_IlvC^B8-his6 (Q110V, S78D), SEQ ID NO: 27 (Escherichia coli K-12; Q110V/S78D) (protein)
chain: MANYFNTLNLRQQLAQLGKCRFMGRDEFADGASYLQGKKVVIVGCGAQGLNQGLNMRDSGLDISYALRKEAIAEKRADWRKATENGFKVGTYEELIPQADLVINLTPDKVHSDVVRTVQPLMKDGAALGYSHGFNIVEVGEQIRKDITVVMVAPKCPGTEVREEYKRGFGVPTLIAVHPENDPKGEGMAIAKAWAAATGGHRAGVLESSFVAEVKSDLMGEQTILCGMLQAGSLLCFDKLVEEGTDPAYAEKLIQFGWETITEALKQGGITLMMDRLSNPAKLRAYALSEQLKEIMAPLFQKHMDDIISGEFSSGMMADWANDDKKLLTWREETGKTAFETAPQYEGKIGEQEYFDKGVLMIAMVKAGVELAFETMVDSGIIEESAYYESLHELPLIANTIARKRLYEMNVVISDTAEYGNYLFSYACVPLLKPFMAELQPGDLGKAIPEGAVDNGQLRDVNEAIRSHAIEQVGKKLRGYMTDMKRIAVAGLEHHHHHH
For the molecule B1, in data set [2] (setting [12]), the Km is 65 µM, the catalytic constant (kcat) came out at 2.0 s⁻¹ and the kcat/Km is 31,775 M^−1 * s^−1. For the same molecule, in data set [2] (with NADH), the kcat/Km turned out to be 34200 M⁻¹ s⁻¹. Further, in data set [3], the Km was 65 µM, the kcat turned out to be 2.2 s⁻¹ and the kcat/Km is 34,188 M^−1 * s^−1.

B2: E. coli KARI Ec_IlvC variant Ec_IlvC^B8A71S-his6 (Q110V, S78D, A71S), SEQ ID NO: 29 (Escherichia coli K-12; A71S/Q110V/S78D) (protein)
chain: B1 chain with A71S
As to B2, in data set [4] (setting [12]), the Km was 53.5 µM, the kcat amounted to 2.0 s⁻¹ and the kcat/Km is listed as 38,330 M^−1 * s^−1. Further, the kcat/Km in data set [4] (with NADH) came out at 37500 M⁻¹ s⁻¹. Moreover, in data set [5], the Michaelis-Menten constant (Km) turned out to be 63.4 µM, the kcat was found to be 2.4 s⁻¹ and the kcat/Km is given as 37,459 M^−1 * s^−1.

B3: E. coli KARI Ec_IlvC variant Ec_IlvC^6E6-his6 (A71S, R76D, S78D, Q110V), SEQ ID NO: 34 (Escherichia coli K-12; A71S/Q110V/R76D/S78D) (protein)
chain: B1 chain with A71S, R76D
notes: T37 values cited for the gene on pGV1975
Regarding B3, in data set [6] (setting [13]), the Michaelis constant (Km) stood at 31.6 µM, the kcat was 2.3 s⁻¹ and the kcat/Km came to 74045 M⁻¹ s⁻¹. Besides, in data set [6] (setting [14]), the Km was 39 µM, the kcat is 2.4 s⁻¹ and the catalytic efficiency (kcat/Km) is 63,000 M^−1 * S^−1. In [7], the Km came to 653 µM, the kcat is 0.2 s⁻¹ and the kcat/Km worked out at 386 M⁻¹ s⁻¹.

B4: E. coli KARI Ec_IlvC variant Ec_IlvC^2H10-his6 (A71S, R76D, S78D, Q110A), SEQ ID NO: 31 (Escherichia coli K-12; A71S/Q110A/R76D/S78D) (protein)
chain: B1 chain with A71S, R76D, V110A
notes: T37 values cited for the gene on pGV1976
Take B4: in data set [8], the Km is 44.2 µM, the kcat is 2.6 s⁻¹ and the specificity constant (kcat/Km) is 60322 M⁻¹ s⁻¹. In addition, in data set [9], the Km stood at 568 µM, the kcat worked out at 0.61 s⁻¹ and the kcat/Km is reported as 1,078 M^−1 * s^−1.

B5: Escherichia coli KARI (ketol-acid reductoisomerase) Ec_IlvC^his6, wild type IlvC (SEQ ID NO: 13) with his6-tag, SEQ ID NO: 15 (Escherichia coli K-12) (protein)
chain: B1 chain with D78S, V110Q
As for B5, in data set [10] (setting [12]), the Km is 1,075 μM, the catalytic constant (kcat) came out at 1.0 s⁻¹ and the catalytic efficiency (kcat/Km) was 1,000 M^−1 * s^−1. The kcat/Km in [10] (with NADH) stood at 87300 M⁻¹ s⁻¹. Moreover, in [11], the Km is 41 µM, the kcat was 3.6 s⁻¹ and the kcat/Km is 87300 M⁻¹ s⁻¹.
